Assay results from FireProtDB (doi:10.1093/protein/12.8.663).

Settings: Homo sapiens; pH 2.7; Thermal; DSC; glycine 0.05 M; reversible: yes; whole UniProt chain shown

B1: Lysozyme C wild type, P61626 (protein)
chain: MKALIVLGLVLLSVTVQGKVFERCELARTLKRLGMDGYRGISLANWMCLAKWESGYNTRATNYNAGDRSTDYGIFQINSRYWCNDGKTPGAVNACHLSCSALLQDNIADAVACAKRVVRDPQGIRAWVAWRNRCQNRDVRQYVQGCGV
- Tm: 64.9 °C
- heat capacity change of unfolding: 1.58 kcal/mol/K
- unfolding enthalpy (calorimetric): 477 kJ/mol
